B1: scFv15hLi7m (scFv, V domains shown)
VH: QVQLQQSGAEVKKPGASVKVSCKASGYAFSSSWMNWVRQAPGQGLEWMGRIYPGDGDTNYNQKFQGRVTMTRDTSTSTVYMELSSLRSEDTAVYFCARWTYGYSKYYYFDDWGQGTLVTVSS
VL: DIQMTQSPSSLSASVGDRVTITCRASQSLLWNVNENNYLSWYQQKQGKAPKLLIYGASILESGVPSRFSGSGSGTDFTLTISSLQPEDFATYYCQHNHGSFLPYTFGQGTKLEIK
notes: also called second generation of the humanized scFv; monomeric scFv
B2: scFv5hLi7m (scFv, V domains shown)
VH: QVQLQQSGAEVKKPGASVKVSCKASGYAFSSSWMNWVRQAPGQGLEWMGRIYPGDGDTNYNQKFQGRVTMTRDTSTSTVYMELSSLRSEDTAVYFCARWTYGYSKYYYFDDWGQGTLVTVSS
VL: DIQMTQSPSSLSASVGDRVTITCRASQSLLWNVNENNYLSWYQQKQGKAPKLLIYGASILESGVPSRFSGSGSGTDFTLTISSLQPEDFATYYCQHNHGSFLPYTFGQGTKLEIK
notes: also called (scFv5hLi7m)2; dimeric scFv5hLi7m
B3: scFv15hLi7 (scFv, V domains shown)
VH: QVQLQQSGAEVKKPGASVKVSCKASGYAFSSSWMNWVRQAPGQGLEWMGRIYPGDGDTNYNQKFQGRVTMTRDTSTSTVYMELSSLRSEDTAVYYCARWTYGYSKYYYFDDWGQGTLVTVSS
VL: DIQMTQSPSSLSASVGDRVTITCRASQSLLWNVNENNYLSWYQQKPGKAPKLLIYGASILESGVPSRFSGSGSGTDFTLTISSLQPEDFATYYCQHNHGSFLPYTFGQGTKLEIK
notes: also called humanized scFv; first generation of the humanized scFv

Tests used:
[1] = biological target: T1, recombinant SMase D LiD1 from L. intermedia (Loxosceles intermedia, UniProt P0CE81); assay: ELISA; settings: both partners purified
T1 construct: also called rLiD1; recombinant sphingomyelinase D
T1 sequence (P0CE81 27-306): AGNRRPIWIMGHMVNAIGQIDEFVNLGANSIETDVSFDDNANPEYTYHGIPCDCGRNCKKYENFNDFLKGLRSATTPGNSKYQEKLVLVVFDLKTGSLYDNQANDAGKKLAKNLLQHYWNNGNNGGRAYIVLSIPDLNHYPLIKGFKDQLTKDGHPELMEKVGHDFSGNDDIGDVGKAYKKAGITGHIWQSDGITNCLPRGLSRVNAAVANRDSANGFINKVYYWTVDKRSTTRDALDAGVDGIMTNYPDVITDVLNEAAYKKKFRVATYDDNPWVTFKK

[2] = biological target: T1, recombinant SMase D LiD1 from L. …; assay: SPR; settings: both partners purified

Row | Binder | binding result [1] | Kd [2] | koff [2] | kon [2]
1 | B1 | binds |  |  | 
2 | B2 | binds |  |  | 
3 | B3 |  | 0.0566 µM | 0.0103 s⁻¹ | 182000 M⁻¹ s⁻¹
